Assay [1] addresses T1, Recombinant Human DLL4 (R&D Systems Cat#1506-D4/CF) (human, UniProt Q9NR61 27-524).
T1 construct: Bought recombinant protein; also called delta-like protein 4; Delta-like 4
The assay is described as follows: MSD Multispot ECL, antigen spotted on plate, Fab in solution; blank spot of the row 337.

For assay [2], the target named is T2, rHuman P-Cadherin/Fc Chimera, CF (R&D Systems Cat#861-PC) (human, UniProt P22223 108-654).
T2 construct: Bought recombinant Fc chimera; Fc part of the bought chimera not given
The description is as above.

Assay [3] concerns the target T3, rHuman CD44/Fc Chimera, CF (R&D Systems Cat#3660-CD) (human, UniProt P16070 21-220).
T3 construct: Bought recombinant Fc chimera; Fc part of the bought chimera not given
Described as above.

Assay [4] concerns the target T4, rHuman EGF R/Fc Chimera, CF (R&D Systems Cat#344-ER) (human, UniProt P00533 25-645).
T4 construct: Bought recombinant Fc chimera; also called epidermal growth factor receptor; Fc part of the bought chimera not given
Described as above.

The target in assay [5] is T5, rHuman HGF R/c-MET/Fc Chimera, CF (R&D Systems Cat#358-MT/CF) (human, UniProt P08581 25-932).
T5 construct: Bought recombinant Fc chimera; also called HGF R/Fc; hepatocyte growth factor receptor; Fc part of the bought chimera not given
The description is as above.

Assay [6] addresses T6, rHuman Notch-1/Fc Chimera, CF (R&D Systems Cat#3647-TK) (human, UniProt P46531 19-526).
T6 construct: Bought recombinant Fc chimera; Fc part of the bought chimera not given
The description is as above.

Assay [7] has as its target T7, rHuman Erythropoietin R/Fc Chimera, CF (R&D Systems Cat#963-ER) (human, UniProt P19235 25-250).
T7 construct: Bought recombinant Fc chimera; also called EPO R; EPO R/Fc; Fc part of the bought chimera not given
T7 sequence (looked up): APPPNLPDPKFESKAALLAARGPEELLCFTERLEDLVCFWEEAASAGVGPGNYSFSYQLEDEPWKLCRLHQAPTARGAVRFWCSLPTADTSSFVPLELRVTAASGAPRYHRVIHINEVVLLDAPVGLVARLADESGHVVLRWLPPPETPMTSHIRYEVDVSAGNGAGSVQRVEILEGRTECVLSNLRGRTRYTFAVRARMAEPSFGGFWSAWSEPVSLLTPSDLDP
Described as above.

The target in assay [8] is T1, Recombinant Human DLL4 (R&D Systems …). The assay is described as follows: MSD Multispot ECL, antigen spotted on plate, Fab in solution; blank spot of the row 373.
Assay [9] has as its target T2, rHuman P-Cadherin/Fc Chimera, CF (R&D …). The assay is described as above.
Assay [10] addresses T3, rHuman CD44/Fc Chimera, CF (R&D Systems …). Described as above.
The target of assay [11] is T4, rHuman EGF R/Fc Chimera, CF (R&D …). Described as above.
Assay [12] addresses T5, rHuman HGF R/c-MET/Fc Chimera, CF (R&D …). The description is as above.
Assay [13] deals with T6, rHuman Notch-1/Fc Chimera, CF (R&D …). Described as above.
Assay [14] has as its target T7, rHuman Erythropoietin R/Fc Chimera, CF …. Described as above.
Assay [15] concerns the target T2, rHuman P-Cadherin/Fc Chimera, CF (R&D …). The assay is described as follows: MSD Multispot ECL, antigen spotted on plate, Fab in solution; blank spot of the row 300.
The target of assay [16] is T4, rHuman EGF R/Fc Chimera, CF (R&D …). The description is as above.
The target of assay [17] is T5, rHuman HGF R/c-MET/Fc Chimera, CF (R&D …). Described as above.
Assay [18] addresses T6, rHuman Notch-1/Fc Chimera, CF (R&D …). The description is as above.
Assay [19] concerns the target T7, rHuman Erythropoietin R/Fc Chimera, CF …. Described as above.
The target of assay [20] is T1, Recombinant Human DLL4 (R&D Systems …). Nature of the assay: MSD Multispot ECL, antigen spotted on plate, Fab in solution; blank spot of the row 297.
In assay [21] the target is T2, rHuman P-Cadherin/Fc Chimera, CF (R&D …). The assay is described as above.
Assay [22] concerns the target T4, rHuman EGF R/Fc Chimera, CF (R&D …). The description is as above.
In assay [23] the target is T5, rHuman HGF R/c-MET/Fc Chimera, CF (R&D …). The description is as above.
Assay [24] concerns the target T6, rHuman Notch-1/Fc Chimera, CF (R&D …). The assay is described as above.
Assay [25] deals with T7, rHuman Erythropoietin R/Fc Chimera, CF …. The assay is described as above.
In assay [26] the target is T1, Recombinant Human DLL4 (R&D Systems …). Nature of the assay: MSD Multispot ECL, antigen spotted on plate, Fab in solution; blank spot of the row 316.
The target of assay [27] is T2, rHuman P-Cadherin/Fc Chimera, CF (R&D …). Described as above.
In assay [28] the target is T3, rHuman CD44/Fc Chimera, CF (R&D Systems …). Described as above.
In assay [29] the target is T4, rHuman EGF R/Fc Chimera, CF (R&D …). The assay is described as above.
Assay [30] addresses T5, rHuman HGF R/c-MET/Fc Chimera, CF (R&D …). The assay is described as above.
Assay [31] deals with T6, rHuman Notch-1/Fc Chimera, CF (R&D …). The description is as above.
For assay [32], the target named is T7, rHuman Erythropoietin R/Fc Chimera, CF …. Described as above.

T5 sequence (P08581 25-932, change not shown): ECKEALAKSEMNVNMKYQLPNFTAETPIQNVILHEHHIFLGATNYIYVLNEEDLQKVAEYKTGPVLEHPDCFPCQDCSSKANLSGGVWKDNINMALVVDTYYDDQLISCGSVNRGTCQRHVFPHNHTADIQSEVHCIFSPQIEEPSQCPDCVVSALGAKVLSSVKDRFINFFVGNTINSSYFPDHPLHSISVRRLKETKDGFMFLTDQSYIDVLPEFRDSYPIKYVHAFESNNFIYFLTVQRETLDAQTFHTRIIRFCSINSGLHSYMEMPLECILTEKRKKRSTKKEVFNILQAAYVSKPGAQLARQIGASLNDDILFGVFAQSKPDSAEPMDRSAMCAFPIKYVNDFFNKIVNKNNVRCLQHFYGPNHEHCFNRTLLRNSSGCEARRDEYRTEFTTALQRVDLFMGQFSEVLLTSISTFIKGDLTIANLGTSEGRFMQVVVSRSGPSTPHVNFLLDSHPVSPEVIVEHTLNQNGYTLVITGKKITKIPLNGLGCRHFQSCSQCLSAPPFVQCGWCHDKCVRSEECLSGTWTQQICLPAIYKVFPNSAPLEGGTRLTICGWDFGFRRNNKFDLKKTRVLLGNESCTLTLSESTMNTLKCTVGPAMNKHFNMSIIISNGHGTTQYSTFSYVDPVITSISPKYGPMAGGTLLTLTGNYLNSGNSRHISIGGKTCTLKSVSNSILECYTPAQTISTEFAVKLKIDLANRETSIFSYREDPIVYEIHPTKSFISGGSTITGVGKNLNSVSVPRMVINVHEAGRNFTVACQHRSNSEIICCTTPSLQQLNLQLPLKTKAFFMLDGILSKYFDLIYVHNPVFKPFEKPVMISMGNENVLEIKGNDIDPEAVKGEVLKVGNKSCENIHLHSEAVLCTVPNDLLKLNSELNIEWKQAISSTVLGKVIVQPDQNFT

B1: Fab VH5-51_IGHD5-18*01>3_IGHJ4*01 G100K/G104T F29A & V3-4_IGLJ1*01 (Fab, V domains shown)
VH: EVQLVQSGAEVKKPGESLKISCKGSGYSATSYWIGWVRQMPGKGLEWMGIIYPGDSDTRYSPSFQGQVTISADKSISTAYLQWSSLKASDTAMYYCARRKYSYTYDYFDYWGQGTLVTVSS
VL: QTVVTQEPSFSVSPGGTVTLTCGLSSGSVSTSYYPSWYQQTPGQAPRTLIYSTNTRSSGVPDRFSGSILGNKAALTITGAQADDESDYYCVLYMGSGISYVFGTGTKVTVL
notes: Fab made in E. coli; VH cloned into Plasmid A (CH1, His6 and Flag tags), lambda VL into Plasmid E (lambda CL); also called KT F29A
Regarding B1, the ECL signal is 22900 in assay [1]; 502 in assay [2]; 621 in assay [3]; 887 in assay [4]; 985 in [5]; 601 in assay [6]. Further, in assay [7], the ECL signal worked out at 586.

B2: Fab VH5-51_IGHD5-18*01>3_IGHJ4*01 G100K/G104T G24A & V3-4_IGLJ1*01 (Fab, V domains shown)
VH: EVQLVQSGAEVKKPGESLKISCKASGYSFTSYWIGWVRQMPGKGLEWMGIIYPGDSDTRYSPSFQGQVTISADKSISTAYLQWSSLKASDTAMYYCARRKYSYTYDYFDYWGQGTLVTVSS
VL: QTVVTQEPSFSVSPGGTVTLTCGLSSGSVSTSYYPSWYQQTPGQAPRTLIYSTNTRSSGVPDRFSGSILGNKAALTITGAQADDESDYYCVLYMGSGISYVFGTGTKVTVL
notes: Fab made in E. coli; VH cloned into Plasmid A (CH1, His6 and Flag tags), lambda VL into Plasmid E (lambda CL); also called KT G24A
In the case of B2, the ECL signal came out at 45500 in assay [8]; 212 in assay [9]; 547 in assay [10]; 757 in assay [11]; 803 in [12]; 493 in assay [13]. Also, in assay [14], the ECL signal is 551.

B3: Fab VH5-51_IGHD5-18*01>3_IGHJ4*01 G100K/G104T I34A & V3-4_IGLJ1*01 (Fab, V domains shown)
VH: EVQLVQSGAEVKKPGESLKISCKGSGYSFTSYWAGWVRQMPGKGLEWMGIIYPGDSDTRYSPSFQGQVTISADKSISTAYLQWSSLKASDTAMYYCARRKYSYTYDYFDYWGQGTLVTVSS
VL: QTVVTQEPSFSVSPGGTVTLTCGLSSGSVSTSYYPSWYQQTPGQAPRTLIYSTNTRSSGVPDRFSGSILGNKAALTITGAQADDESDYYCVLYMGSGISYVFGTGTKVTVL
notes: Fab made in E. coli; VH cloned into Plasmid A (CH1, His6 and Flag tags), lambda VL into Plasmid E (lambda CL); also called KT I34A
With B3, the ECL signal is 349 in [15]; 883 in assay [16]; 1080 in [17]; 564 in assay [18]; 505 in assay [19].

B4: Fab VH5-51_IGHD5-18*01>3_IGHJ4*01 G100K/G104T G35A & V3-4_IGLJ1*01 (Fab, V domains shown)
VH: EVQLVQSGAEVKKPGESLKISCKGSGYSFTSYWIAWVRQMPGKGLEWMGIIYPGDSDTRYSPSFQGQVTISADKSISTAYLQWSSLKASDTAMYYCARRKYSYTYDYFDYWGQGTLVTVSS
VL: QTVVTQEPSFSVSPGGTVTLTCGLSSGSVSTSYYPSWYQQTPGQAPRTLIYSTNTRSSGVPDRFSGSILGNKAALTITGAQADDESDYYCVLYMGSGISYVFGTGTKVTVL
notes: Fab made in E. coli; VH cloned into Plasmid A (CH1, His6 and Flag tags), lambda VL into Plasmid E (lambda CL); also called KT G35A
As to B4, the ECL signal came to 53600 in [20]; 305 in [21]; 760 in [22]; 939 in [23]; 400 in assay [24]; 506 in assay [25].

B5: Fab VH5-51_IGHD5-18*01>3_IGHJ4*01 G100K/G104T S28A & V3-4_IGLJ1*01 (Fab, V domains shown)
VH: EVQLVQSGAEVKKPGESLKISCKGSGYAFTSYWIGWVRQMPGKGLEWMGIIYPGDSDTRYSPSFQGQVTISADKSISTAYLQWSSLKASDTAMYYCARRKYSYTYDYFDYWGQGTLVTVSS
VL: QTVVTQEPSFSVSPGGTVTLTCGLSSGSVSTSYYPSWYQQTPGQAPRTLIYSTNTRSSGVPDRFSGSILGNKAALTITGAQADDESDYYCVLYMGSGISYVFGTGTKVTVL
notes: Fab made in E. coli; VH cloned into Plasmid A (CH1, His6 and Flag tags), lambda VL into Plasmid E (lambda CL); also called KT S28A
With B5, the ECL signal in assay [26] is 35400; in [27], 317; in assay [28], 497; in [29], 839; in assay [30], 1040; in assay [31] it was 432. In assay [32], this molecule came in with an ECL signal of 586.

(Values after patent publication US20120316071A1 (published 2012).)
